Measured values reported in patent US20250289849A1, “PEPTIDE TO TREAT ALPHA-SYNUCLEIN AMYLOID BASED DISORDERS” (COUNCIL OF SCIENTIFIC & INDUSTRIAL RESEARCH, priority 2022, published 2025).
Where no end group is shown, it is not given here.

Target: T1, human wild-type α-synuclein (Homo sapiens, UniProt P37840)
T1 construct: made in house; host or cells: E. coli Rosetta(DE3), pT7-7 based expression vector
Experiment: In vitro fibrillation assay (Thioflavin T fluorescence)
Format: biochemical
Conditions: for inhibition of α-synuclein fibrillation (reduction in ThT fluorescence, in words): FIG. 3, α-synuclein 400 μM, equimolar peptide, 37° C., observed upto 6 hr; for increase in α-synuclein fibrillation (fluorescence intensity), compared to penetratin: FIG. 4A, zoomed Y-axis of FIG. 3 data; for normalized ratio of ThT fluorescence amplitude at 5 h versus 0 h, compared with SEQ.ID.-4: FIG. 4B
Protocol: FIG. 1. […] The α-synuclein fibrillation was monitored using ThioflavinT (ThT), a dye that specifically binds to amyloids. The binding of ThT results in increase of its fluorescence intensity at 482 nm. Purified α-synuclein (400 μM) was incubated at 37° C. with shaking in the presence and absence of equimolar concentration of indicated peptides. Amyloid formation was determined by monitoring ThT fluorescence at different time intervals.
FIG. 3. […] The α-synuclein fibrillation was monitored using ThioflavinT (ThT) dye, which specifically binds to amyloids, with its subsequent increase in fluorescence intensity recorded at 482 nm. The purified α-synuclein (400 μM) was incubated at 37° C. with shaking, in the presence and absence of equimolar concentration of indicated peptides. Amyloid formation was determined by monitoring ThT fluorescence at different time intervals.
FIG. 4A. The inhibition of α-synuclein fibrillation in the presence of different peptides as indicated by SEQ.IDs. The data is same as in FIG. 3A except that only the enhanced (zoomed) Y-axis for α-synuclein fibrillation in the presence of peptides is shown for clarity.
FIG. 4B. The ratio of the amplitude at 5 h versus 0 h for each of the curve was calculated and normalized.
Thioflavin T (ThT) (4 mM) was added to 400 μM of purified α-synuclein with and without Cell penetrating peptides at equimolar concentration in a 96 microwell plate. The plate was incubated at 37° C. with a shaking speed of 900 rpm in linear mode in a multimode plate reader (TECAN infinite M200 PRO). Fluorescence kinetics was measured after every 15 minutes with emission wavelength of 482 nm upon excitation at 442 nm. Each experiment was repeated at least three times.

Substance | inhibition of α-synuclein fibrillation (reduction in ThT fluorescence, in words) | increase in α-synuclein fibrillation (fluorescence intensity), compared to penetratin | normalized ratio of ThT fluorescence amplitude at 5 h versus 0 h, compared with SEQ.ID.-4
SEQ.ID.-8: shorter and cyclized derivative of SEQ.ID.-4 with an additional mutation (CKIWFANRRMKC; not fully specified (bridges); also: cyclized, mode not given here) | inhibits α-synuclein fibrillation | did not allow increase in α-synuclein fibrillation | significantly better inhibitor of fibrillation than of SEQ.ID.-4
SEQ.ID.-6: Cyclic derivative synthesized by introducing Cys residue at N-terminal and C-terminal of SEQ.ID.-4 sequence (CRQIKIWFQNRRMKWKKC; not fully specified (bridges); cysteine pairing not given here) | inhibits α-synuclein fibrillation | – | –
SEQ.ID.-7: shorter truncated version of SEQ.ID.-4, further cyclized (CKIWFQNRRMKC; not fully specified (bridges); also: cyclized, mode not given here) | inhibits α-synuclein fibrillation | did not allow increase in α-synuclein fibrillation | significantly better inhibitor of fibrillation than of SEQ.ID.-4
